Test results taken from US20240238380A1 (YUHAN, published 2024).

target: GFRAL/RET overexpressed on HEK293 cells (GFRAL/RET/SRE-luc-overexpressing HEK293 cell line) (UniProt Q6UXV0 19-394; P07949 29-1114, limits assumed); assay: cell-based or functional assay
Sequence (Q6UXV0 19-394 limits assumed, chain 1 of 2): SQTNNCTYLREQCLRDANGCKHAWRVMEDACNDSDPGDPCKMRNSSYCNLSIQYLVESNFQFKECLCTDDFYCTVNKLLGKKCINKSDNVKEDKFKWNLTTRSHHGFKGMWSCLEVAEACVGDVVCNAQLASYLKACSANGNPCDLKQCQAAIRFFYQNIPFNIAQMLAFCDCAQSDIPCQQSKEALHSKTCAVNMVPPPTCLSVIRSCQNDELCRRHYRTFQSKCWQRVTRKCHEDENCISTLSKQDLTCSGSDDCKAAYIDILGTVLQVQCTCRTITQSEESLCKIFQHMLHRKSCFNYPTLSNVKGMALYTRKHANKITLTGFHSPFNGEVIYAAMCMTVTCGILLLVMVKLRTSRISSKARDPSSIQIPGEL
Sequence (P07949 29-1114 limits assumed, chain 2 of 2): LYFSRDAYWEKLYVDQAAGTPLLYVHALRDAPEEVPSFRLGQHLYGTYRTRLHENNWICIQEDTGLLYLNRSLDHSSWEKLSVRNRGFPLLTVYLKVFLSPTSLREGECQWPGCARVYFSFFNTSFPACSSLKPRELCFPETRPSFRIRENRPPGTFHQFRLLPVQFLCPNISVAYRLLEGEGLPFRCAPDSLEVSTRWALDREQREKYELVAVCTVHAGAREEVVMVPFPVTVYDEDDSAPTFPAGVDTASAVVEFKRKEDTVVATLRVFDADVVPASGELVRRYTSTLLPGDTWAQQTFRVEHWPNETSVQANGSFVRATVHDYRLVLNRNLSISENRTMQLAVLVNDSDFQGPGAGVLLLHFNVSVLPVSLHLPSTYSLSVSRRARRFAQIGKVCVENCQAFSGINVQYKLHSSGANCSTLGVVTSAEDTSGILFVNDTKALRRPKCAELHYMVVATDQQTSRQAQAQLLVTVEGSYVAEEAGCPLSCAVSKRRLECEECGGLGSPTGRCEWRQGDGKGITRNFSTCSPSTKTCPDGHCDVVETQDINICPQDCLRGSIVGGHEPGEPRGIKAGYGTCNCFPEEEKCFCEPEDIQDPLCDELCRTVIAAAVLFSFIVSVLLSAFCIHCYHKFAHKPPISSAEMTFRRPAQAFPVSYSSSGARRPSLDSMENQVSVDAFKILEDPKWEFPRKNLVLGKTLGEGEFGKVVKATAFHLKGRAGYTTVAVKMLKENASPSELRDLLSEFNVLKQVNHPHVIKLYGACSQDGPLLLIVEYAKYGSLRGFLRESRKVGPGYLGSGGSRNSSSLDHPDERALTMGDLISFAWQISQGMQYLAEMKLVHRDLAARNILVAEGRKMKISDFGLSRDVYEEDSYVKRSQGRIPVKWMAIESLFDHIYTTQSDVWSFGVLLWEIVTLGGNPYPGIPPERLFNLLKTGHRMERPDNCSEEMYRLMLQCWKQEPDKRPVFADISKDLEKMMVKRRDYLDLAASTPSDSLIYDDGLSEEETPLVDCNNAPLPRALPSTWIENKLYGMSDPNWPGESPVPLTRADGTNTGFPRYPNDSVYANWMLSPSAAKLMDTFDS

Binder	EC50 (nM), SRE-luciferase reporter (RLU) [nM]	Emax (%), SRE-luciferase reporter (RLU), relative to FM9-6+Fc_hole [%]
FM9-1 + Fc_hole long-acting GDF15 fusion protein (dimer) (Fc fusion) chain 1: APEAAGGPSVFLFPPKPKDTLMISRTPEVTCVVVDVSHEDPEVKFNWYVDGVEVHNAKTKPREEQYASTYRVVSVLTVLHQDWLNGKEYKCKVSNKALPAPIEKTISKAKGQPREPQVYTLPPSREEMTKNQVSLWCLVKGFYPSDIAVEWESNGQPENNYKTTPPVLDSDGSFFLYSKLTVDKSRWQQGNVFSCSVMHEALHNHYTQKSLSLSPGKGSGGGGSGGGGSGGGGSNGDHCPLGPGRCCRLHTVRASLEDLGWADWVLSPREVQVTMCIGACPSQFRAANMHAQIKTRLHRLKPDTVPAPCCVPASYNPMVLIQKTDTGVSLQTYDDLLAKDCHCI chain 2: APEAAGGPSVFLFPPKPKDTLMISRTPEVTCVVVDVSHEDPEVKFNWYVDGVEVHNAKTKPREEQYASTYRVVSVLTVLHQDWLNGKEYKCKVSNKALPAPIEKTISKAKGQPREPQVYTLPPSREEMTKNQVSLSCAVKGFYPSDIAVEWESNGQPENNYKTTPPVLDSDGSFFLVSKLTVDKSRWQQGNVFSCSVMHEALHNHYTQKSLSLSPGK	9	97.6
FM11-1 + Fc_hole long-acting GDF15 fusion protein (dimer) (Fc fusion) chain 1: APEAAGGPSVFLFPPKPKDTLMISRTPEVTCVVVDVSHEDPEVKFNWYVDGVEVHNAKTKPREEQYASTYRVVSVLTVLHQDWLNGKEYKCKVSNKALPAPIEKTISKAKGQPREPQVYTLPPSREEMTKNQVSLWCLVKGFYPSDIAVEWESNGQPENNYKTTPPVLDSDGSFFLYSKLTVDKSRWQQGNVFSCSVMHEALHNHYTQKSLSLSPGKGSGGGGSGGGGSGGGGSNSTCPLGPGRCCRLHTVRASLEDLGWADWVLSPREVQVTMCIGACPSQFRAANMHAQIKTRLHRLKPDTVPAPCCVPASYNPMVLIQKTDTGVSLQTYDDLLAKDCHCI chain 2: APEAAGGPSVFLFPPKPKDTLMISRTPEVTCVVVDVSHEDPEVKFNWYVDGVEVHNAKTKPREEQYASTYRVVSVLTVLHQDWLNGKEYKCKVSNKALPAPIEKTISKAKGQPREPQVYTLPPSREEMTKNQVSLSCAVKGFYPSDIAVEWESNGQPENNYKTTPPVLDSDGSFFLVSKLTVDKSRWQQGNVFSCSVMHEALHNHYTQKSLSLSPGK	9.7	65.6
FM11-5 + Fc_hole long-acting GDF15 fusion protein (dimer) (Fc fusion) chain 1: APEAAGGPSVFLFPPKPKDTLMISRTPEVTCVVVDVSHEDPEVKFNWYVDGVEVHNAKTKPREEQYASTYRVVSVLTVLHQDWLNGKEYKCKVSNKALPAPIEKTISKAKGQPREPQVYTLPPSREEMTKNQVSLWCLVKGFYPSDIAVEWESNGQPENNYKTTPPVLDSDGSFFLYSKLTVDKSRWQQGNVFSCSVMHEALHNHYTQKSLSLSPGKGSGGSSPTPTPTPTPTPTPTPTPTPTNSTCPLGPGRCCRLHTVRASLEDLGWADWVLSPREVQVTMCIGACPSQFRAANMHAQIKTRLHRLKPDTVPAPCCVPASYNPMVLIQKTDTGVSLQTYDDLLAKDCHCI chain 2: APEAAGGPSVFLFPPKPKDTLMISRTPEVTCVVVDVSHEDPEVKFNWYVDGVEVHNAKTKPREEQYASTYRVVSVLTVLHQDWLNGKEYKCKVSNKALPAPIEKTISKAKGQPREPQVYTLPPSREEMTKNQVSLSCAVKGFYPSDIAVEWESNGQPENNYKTTPPVLDSDGSFFLVSKLTVDKSRWQQGNVFSCSVMHEALHNHYTQKSLSLSPGK	5.1	68.2
FM11-4 + Fc_hole long-acting GDF15 fusion protein (dimer) (Fc fusion) chain 1: APEAAGGPSVFLFPPKPKDTLMISRTPEVTCVVVDVSHEDPEVKFNWYVDGVEVHNAKTKPREEQYASTYRVVSVLTVLHQDWLNGKEYKCKVSNKALPAPIEKTISKAKGQPREPQVYTLPPSREEMTKNQVSLWCLVKGFYPSDIAVEWESNGQPENNYKTTPPVLDSDGSFFLYSKLTVDKSRWQQGNVFSCSVMHEALHNHYTQKSLSLSPGKGSEEEAEEEAEEEAEEEAEEEAEEEANSTCPLGPGRCCRLHTVRASLEDLGWADWVLSPREVQVTMCIGACPSQFRAANMHAQIKTRLHRLKPDTVPAPCCVPASYNPMVLIQKTDTGVSLQTYDDLLAKDCHCI chain 2: APEAAGGPSVFLFPPKPKDTLMISRTPEVTCVVVDVSHEDPEVKFNWYVDGVEVHNAKTKPREEQYASTYRVVSVLTVLHQDWLNGKEYKCKVSNKALPAPIEKTISKAKGQPREPQVYTLPPSREEMTKNQVSLSCAVKGFYPSDIAVEWESNGQPENNYKTTPPVLDSDGSFFLVSKLTVDKSRWQQGNVFSCSVMHEALHNHYTQKSLSLSPGK	45.4	105
FM9-6 + Fc_hole long-acting GDF15 fusion protein (dimer) (Fc fusion) chain 1: APEAAGGPSVFLFPPKPKDTLMISRTPEVTCVVVDVSHEDPEVKFNWYVDGVEVHNAKTKPREEQYASTYRVVSVLTVLHQDWLNGKEYKCKVSNKALPAPIEKTISKAKGQPREPQVYTLPPSREEMTKNQVSLWCLVKGFYPSDIAVEWESNGQPENNYKTTPPVLDSDGSFFLYSKLTVDKSRWQQGNVFSCSVMHEALHNHYTQKSLSLSPGKGSEAAAKEAAAKEAAAKEAAAKEAAAKNGDHCPLGPGRCCRLHTVRASLEDLGWADWVLSPREVQVTMCIGACPSQFRAANMHAQIKTRLHRLKPDTVPAPCCVPASYNPMVLIQKTDTGVSLQTYDDLLAKDCHCI chain 2: APEAAGGPSVFLFPPKPKDTLMISRTPEVTCVVVDVSHEDPEVKFNWYVDGVEVHNAKTKPREEQYASTYRVVSVLTVLHQDWLNGKEYKCKVSNKALPAPIEKTISKAKGQPREPQVYTLPPSREEMTKNQVSLSCAVKGFYPSDIAVEWESNGQPENNYKTTPPVLDSDGSFFLVSKLTVDKSRWQQGNVFSCSVMHEALHNHYTQKSLSLSPGK	6.3	–
FM11-3 + Fc_hole long-acting GDF15 fusion protein (dimer) (Fc fusion) chain 1: APEAAGGPSVFLFPPKPKDTLMISRTPEVTCVVVDVSHEDPEVKFNWYVDGVEVHNAKTKPREEQYASTYRVVSVLTVLHQDWLNGKEYKCKVSNKALPAPIEKTISKAKGQPREPQVYTLPPSREEMTKNQVSLWCLVKGFYPSDIAVEWESNGQPENNYKTTPPVLDSDGSFFLYSKLTVDKSRWQQGNVFSCSVMHEALHNHYTQKSLSLSPGKGSGGGGSGGGGSGGGGSGGGGSGGGGSGGGGSGGGGSNSTCPLGPGRCCRLHTVRASLEDLGWADWVLSPREVQVTMCIGACPSQFRAANMHAQIKTRLHRLKPDTVPAPCCVPASYNPMVLIQKTDTGVSLQTYDDLLAKDCHCI chain 2: APEAAGGPSVFLFPPKPKDTLMISRTPEVTCVVVDVSHEDPEVKFNWYVDGVEVHNAKTKPREEQYASTYRVVSVLTVLHQDWLNGKEYKCKVSNKALPAPIEKTISKAKGQPREPQVYTLPPSREEMTKNQVSLSCAVKGFYPSDIAVEWESNGQPENNYKTTPPVLDSDGSFFLVSKLTVDKSRWQQGNVFSCSVMHEALHNHYTQKSLSLSPGK	7.8	81
FM11-2 + Fc_hole long-acting GDF15 fusion protein (dimer) (Fc fusion) chain 1: APEAAGGPSVFLFPPKPKDTLMISRTPEVTCVVVDVSHEDPEVKFNWYVDGVEVHNAKTKPREEQYASTYRVVSVLTVLHQDWLNGKEYKCKVSNKALPAPIEKTISKAKGQPREPQVYTLPPSREEMTKNQVSLWCLVKGFYPSDIAVEWESNGQPENNYKTTPPVLDSDGSFFLYSKLTVDKSRWQQGNVFSCSVMHEALHNHYTQKSLSLSPGKGSGGGGSGGGGSGGGGSGGGGSGGGGSNSTCPLGPGRCCRLHTVRASLEDLGWADWVLSPREVQVTMCIGACPSQFRAANMHAQIKTRLHRLKPDTVPAPCCVPASYNPMVLIQKTDTGVSLQTYDDLLAKDCHCI chain 2: APEAAGGPSVFLFPPKPKDTLMISRTPEVTCVVVDVSHEDPEVKFNWYVDGVEVHNAKTKPREEQYASTYRVVSVLTVLHQDWLNGKEYKCKVSNKALPAPIEKTISKAKGQPREPQVYTLPPSREEMTKNQVSLSCAVKGFYPSDIAVEWESNGQPENNYKTTPPVLDSDGSFFLVSKLTVDKSRWQQGNVFSCSVMHEALHNHYTQKSLSLSPGK	7.7	79.4
FM11-6 + Fc_hole long-acting GDF15 fusion protein (dimer) (Fc fusion) chain 1: APEAAGGPSVFLFPPKPKDTLMISRTPEVTCVVVDVSHEDPEVKFNWYVDGVEVHNAKTKPREEQYASTYRVVSVLTVLHQDWLNGKEYKCKVSNKALPAPIEKTISKAKGQPREPQVYTLPPSREEMTKNQVSLWCLVKGFYPSDIAVEWESNGQPENNYKTTPPVLDSDGSFFLYSKLTVDKSRWQQGNVFSCSVMHEALHNHYTQKSLSLSPGKGSEAAAKEAAAKEAAAKEAAAKEAAAKNSTCPLGPGRCCRLHTVRASLEDLGWADWVLSPREVQVTMCIGACPSQFRAANMHAQIKTRLHRLKPDTVPAPCCVPASYNPMVLIQKTDTGVSLQTYDDLLAKDCHCI chain 2: APEAAGGPSVFLFPPKPKDTLMISRTPEVTCVVVDVSHEDPEVKFNWYVDGVEVHNAKTKPREEQYASTYRVVSVLTVLHQDWLNGKEYKCKVSNKALPAPIEKTISKAKGQPREPQVYTLPPSREEMTKNQVSLSCAVKGFYPSDIAVEWESNGQPENNYKTTPPVLDSDGSFFLVSKLTVDKSRWQQGNVFSCSVMHEALHNHYTQKSLSLSPGK	6.8	80.3
FM9-5 + Fc_hole long-acting GDF15 fusion protein (dimer) (Fc fusion) chain 1: APEAAGGPSVFLFPPKPKDTLMISRTPEVTCVVVDVSHEDPEVKFNWYVDGVEVHNAKTKPREEQYASTYRVVSVLTVLHQDWLNGKEYKCKVSNKALPAPIEKTISKAKGQPREPQVYTLPPSREEMTKNQVSLWCLVKGFYPSDIAVEWESNGQPENNYKTTPPVLDSDGSFFLYSKLTVDKSRWQQGNVFSCSVMHEALHNHYTQKSLSLSPGKGSGGSSPTPTPTPTPTPTPTPTPTPTNGDHCPLGPGRCCRLHTVRASLEDLGWADWVLSPREVQVTMCIGACPSQFRAANMHAQIKTRLHRLKPDTVPAPCCVPASYNPMVLIQKTDTGVSLQTYDDLLAKDCHCI chain 2: APEAAGGPSVFLFPPKPKDTLMISRTPEVTCVVVDVSHEDPEVKFNWYVDGVEVHNAKTKPREEQYASTYRVVSVLTVLHQDWLNGKEYKCKVSNKALPAPIEKTISKAKGQPREPQVYTLPPSREEMTKNQVSLSCAVKGFYPSDIAVEWESNGQPENNYKTTPPVLDSDGSFFLVSKLTVDKSRWQQGNVFSCSVMHEALHNHYTQKSLSLSPGK	5.3	100
